The supplement of paper PMC9233669
Fewer inactive variants are shown than the library holds.

How the values were obtained:
[1] = tested on: biotinyl-Phe-oxazolone; assay: self-aminoacylation, catalytic enhancement (BFO) (fold over background); higher = more active; k-Seq, kA / k0A0; sequences stand for … in GGGAAUGGAUCCACAUCUACGAAUUC…UUCACUGCAGACUUGACGAAGCUG
Method in brief: (§1)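 Working in 50 μL HEPES/NaCl/KCl/MgCl2/CaCl2 buffer with 5% acetonitrile at pH 6.9–7.0, mutagenized RNA pools (0.43 μM; 21-nt variable region) were reacted with 2–1250 μM of each biotinyl-aminoacyl-oxazolone for 90 minutes at room temperature. Streptavidin capture followed, with quantification by triplicate qPCR and Illumina sequencing. Catalytic enhancement is reported as median kA over the uncatalyzed rate, the low-activity peak of a bimodal Gaussian fit to the data.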

[2] = tested on: biotinyl-Ile-oxazolone; assay: self-aminoacylation, catalytic enhancement (BIO) (fold over background); higher = more active; k-Seq, kA / k0A0; sequences stand for … in GGGAAUGGAUCCACAUCUACGAAUUC…UUCACUGCAGACUUGACGAAGCUG
Method in brief: as §1

[3] = tested on: biotinyl-Met-oxazolone; assay: self-aminoacylation, catalytic enhancement (BMO) (fold over background); higher = more active; k-Seq, kA / k0A0; sequences stand for … in GGGAAUGGAUCCACAUCUACGAAUUC…UUCACUGCAGACUUGACGAAGCUG
Method in brief: as §1

[4] = tested on: biotinyl-Val-oxazolone; assay: self-aminoacylation, catalytic enhancement (BVO) (fold over background); higher = more active; k-Seq, kA / k0A0; sequences stand for … in GGGAAUGGAUCCACAUCUACGAAUUC…UUCACUGCAGACUUGACGAAGCUG
Method in brief: as §1

[5] = tested on: biotinyl-Leu-oxazolone; assay: self-aminoacylation, catalytic enhancement (BLO) (fold over background); higher = more active; k-Seq, kA / k0A0; sequences stand for … in GGGAAUGGAUCCACAUCUACGAAUUC…UUCACUGCAGACUUGACGAAGCUG
Method in brief: as §1

[6] = tested on: biotinyl-Trp-oxazolone; assay: self-aminoacylation, catalytic enhancement (BWO) (fold over background); higher = more active; k-Seq, kA / k0A0; sequences stand for … in GGGAAUGGAUCCACAUCUACGAAUUC…UUCACUGCAGACUUGACGAAGCUG
Method in brief: as §1

Sequence	self-aminoacylation [1]	self-aminoacylation [2]	self-aminoacylation [3]	self-aminoacylation [4]	self-aminoacylation [5]	self-aminoacylation [6]
AAGUUUGCUAAUAGUCGCAUG [Fam3.1 aminoacylation ribozyme variant]	1.47	1.03	0.93	0.916	0.932	0.976
CCACACGUCAAGCAAUCGGAC [Fam1B.1 aminoacylation ribozyme variant]	0.667	1.53	1.14	2.03	1.36	0.681
CUACUUCAAAGAAUAGGUCUG [Fam1A.1 aminoacylation ribozyme variant]	0.944	0.816	0.784	0.746	0.699	0.59
CCACACUUCAAGCAAUUGGAC [Fam1B.1 aminoacylation ribozyme variant]	0.614	0.72	0.664	0.697	0.583	0.337
AUUACCCUGGUCAUGGAGUGU [Fam2.1 aminoacylation ribozyme variant]	3.83	1.72	2.46	1.98	2.73	2.57
AUUCACCUGUGUCAUCGGGUG [Fam2.2 aminoacylation ribozyme variant]	28.1	5.71	10.8	6.51	15.7	8.96
CUUCAUCUAGGUCAUCGGGUG [Fam2.2 aminoacylation ribozyme variant]	38.8	4.55	6.52	4.7	7.99	5.49
AUUACACUGGUCAUCGAGCGA [Fam2.1 aminoacylation ribozyme variant]	0.889	1.64	2.15	1.96	2.29	1.8
AUUAACCUAGGUCCUCGGGUG [Fam2.2 aminoacylation ribozyme variant]	18	2.58	4.07	2.81	4.72	3.09
ACACACUUCAAGCAAGCGGUC [Fam1B.1 aminoacylation ribozyme variant]	2.18	1.6	1.33	1.73	1.52	1.74
AUUACCCUGGACAUCGAGUGU [Fam2.1 aminoacylation ribozyme variant]	5.95	1.51	3.35	2.66	3.35	4.38
CUACUUCAAAAAAUCUGUCUG [Fam1A.1 aminoacylation ribozyme variant]	1.36	0.84	0.589	0.699	0.61	0.797
AAGUUUGUUGAUAGUCGCAAG [Fam3.1 aminoacylation ribozyme variant]	1.36	1.14	1.09	1.09	1.09	1.19
